B1: wild-type Lcn2 (other)
chain: QDSTSDLIPAPPLSKVPLQQNFQDNQFQGKWYVVGLAGNAILREDKDPQKMYATIYELKEDKSYNVTSVLFRKKKCDYWIRTFVPGCQPGEFTLGNIKSYPGLTSYLVRVVSTNYNQHAMVFFKKVSQNREYFKITLYGRTKELTSELKENFIRFSKSLGLPENHIVFPVPIDQCIDG
notes: Negative control in microscopy and flow cytometry; also called wt Lcn2; lipocalin 2
B2: Anticalin candidate G4 (designed binder)
chain: QDSTSDLIPAPPLSKVPLQQNFQDNQFHGKWYVVGHAGNMLLREDKDPSKMVATIYELKEDKSYNVTQVDFGTKKCFYAINTFVPGSQPGEFTLGHIKSNPGMTSMLVRVVSTNYNQHAMVFFKAVLQNREGFLITLYGRTKELTSELKENFIRFSKSLGLPENHIVFPVPIDQCIDG
notes: also called G4 clone; not shown: C-terminal Strep-tag II

Legend:
[1] = molecular target: T1, full-length human PSMA expressed on cells (HEK293T/PSMA transfectants, LNCaP) (human, UniProt Q04609 1-750); assay: immunofluorescence microscopy on fixed, permeabilized cells
T1 construct: whole, on cells; Transfected in HEK293T/17 cells, endogenous in LNCaP cells; In the Western blot it stood in SDS cell lysates; also called full length wild-type PSMA; cellular PSMA
T1 sequence (Q04609 whole entry): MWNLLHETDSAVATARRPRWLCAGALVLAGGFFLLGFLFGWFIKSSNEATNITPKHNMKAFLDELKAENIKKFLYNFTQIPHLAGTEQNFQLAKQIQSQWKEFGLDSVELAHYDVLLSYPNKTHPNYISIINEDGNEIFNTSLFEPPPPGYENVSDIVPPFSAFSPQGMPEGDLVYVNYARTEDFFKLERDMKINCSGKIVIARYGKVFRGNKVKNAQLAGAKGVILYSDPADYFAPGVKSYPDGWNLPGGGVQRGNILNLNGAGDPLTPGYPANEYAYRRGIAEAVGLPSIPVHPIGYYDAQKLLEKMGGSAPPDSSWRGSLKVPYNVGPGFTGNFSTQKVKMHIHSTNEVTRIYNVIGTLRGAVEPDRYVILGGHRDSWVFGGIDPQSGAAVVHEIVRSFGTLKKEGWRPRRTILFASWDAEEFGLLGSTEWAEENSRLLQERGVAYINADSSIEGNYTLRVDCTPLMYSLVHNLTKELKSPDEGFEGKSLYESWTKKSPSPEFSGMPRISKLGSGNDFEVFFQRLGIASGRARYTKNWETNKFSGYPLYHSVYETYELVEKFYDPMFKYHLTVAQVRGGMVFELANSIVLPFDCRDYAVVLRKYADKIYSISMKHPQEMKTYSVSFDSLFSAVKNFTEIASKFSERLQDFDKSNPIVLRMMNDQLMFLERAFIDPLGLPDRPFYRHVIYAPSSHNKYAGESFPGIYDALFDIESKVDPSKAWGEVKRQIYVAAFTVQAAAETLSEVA
Experimental: PSMA-positive and -negative cells grown on cover slides coated with gelatin (0.1% w/v) were washed twice with PBS, fixed with 4% w/v paraformaldehyde in PBS for 15 min, permeabilized by treatment with PBS containing 0.1% v/v Triton X-100 for 15 min, and incubated in the blocking solution (5% w/v non-fat dried milk/PBS) for 30 min at room temperature (RT). Cells were then incubated with 0.5 μM Anticalin in 5% w/v non-fat dried milk/PBS for 45 min at RT followed by incubation with a Strep-tag II specific monoclonal antibody StrepMAB-Immo (2 μg/mL in PBS/0.05% Tween-20; IBA, 2-1517) for 1 h at RT. An anti-mouse secondary antibody conjugated to Alexa Fluor 488 (5 μg/mL in PBS/0.05% Tween-20; Life Technologies, A11029) served as detection reagent and was applied for 1 h at RT. All incubation steps were interspersed by extensive washing with PBS/0.05% Tween-20. […]
For immunofluorescence microscopy, the different cell lines were fixed with paraformaldehyde on glass coverslips and permeabilized. Following a blocking step, cells were probed with the Anticalin A3A5, which was detected by a murine antibody (StrepMAB-Immo) recognizing the Strep-tag II and an Alexa Fluor 488-labeled anti-mouse secondary antibody. […] Also, when wild-type Lcn2 was used instead of the Anticalin A3A5, no fluorescent staining was detected. […]

[2] = molecular target: T2, rhPSMA, extracellular part of human PSMA (residues 44-750) with its native N-terminus (human, UniProt Q04609 44-750, N-glycosylated (made in Schneider S2 insect cells)); assay: ELISA on coated rhPSMA; G4 taken as the sixth candidate
T2 construct: range 44-750; No tag; also called wild-type rhPSMA; rhGCPII
T2 sequence (Q04609 44-750 limits assumed): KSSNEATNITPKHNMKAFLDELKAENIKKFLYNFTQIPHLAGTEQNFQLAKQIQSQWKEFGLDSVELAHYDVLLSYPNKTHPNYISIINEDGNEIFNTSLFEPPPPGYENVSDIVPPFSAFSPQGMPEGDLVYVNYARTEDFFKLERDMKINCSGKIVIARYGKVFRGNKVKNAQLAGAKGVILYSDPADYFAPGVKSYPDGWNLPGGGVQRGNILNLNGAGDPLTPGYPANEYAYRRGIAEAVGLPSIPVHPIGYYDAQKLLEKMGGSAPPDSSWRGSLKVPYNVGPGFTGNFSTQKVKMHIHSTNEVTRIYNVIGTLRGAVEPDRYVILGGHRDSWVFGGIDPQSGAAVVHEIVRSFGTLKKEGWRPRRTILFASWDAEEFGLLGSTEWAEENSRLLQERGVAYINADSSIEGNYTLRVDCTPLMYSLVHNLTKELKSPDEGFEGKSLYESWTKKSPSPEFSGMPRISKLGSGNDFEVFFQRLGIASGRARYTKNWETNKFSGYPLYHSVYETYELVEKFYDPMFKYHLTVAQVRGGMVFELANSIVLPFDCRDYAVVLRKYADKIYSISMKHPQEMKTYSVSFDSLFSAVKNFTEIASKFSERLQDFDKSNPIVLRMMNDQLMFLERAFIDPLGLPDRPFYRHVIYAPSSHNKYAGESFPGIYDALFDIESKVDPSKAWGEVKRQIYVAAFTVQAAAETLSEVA
Experimental: 50 μL of rhPSMA (5 μg/mL in TBS) was directly adsorbed onto the surface of a MaxiSorp 96-well plate overnight at 4° C. Similarly, ovalbumin-coated wells (10 μg/mL in PBS) were used as a negative control. After blocking with 250 μL of 2% w/v BSA for 1 h at room temperature, 50 μL from a serial Anticalin dilution in PBS was added to each well and incubated for 1 h. The plates were washed three times and bound Anticalins were detected with StrepTactin-AP as described further above. The data were analyzed using Prism 5 software (GraphPad) and absorption values (A) were fitted according to the formula ΔA=Aₘₐₓ·[Lₜₒₜ]/(KD+[Lₜₒₜ]) with the concentration of the applied lipocalin variant [Lₜₒₜ] and the dissociation constant KD.
Specific binding activities of selected Anticalins toward rhPSMA as well as apparent affinity constants were initially determined by ELISA in 96-well Maxisorp plates coated with the recombinant wild-type PSMA protein. Anticalins were applied in a dilution series and detected via the C-terminal Strep-tag II. Five of the six analyzed Anticalin candidates specifically recognized PSMA with apparent dissociation constants (K₀ values) ranging from 6 to 42 nM, for A3 and H3, respectively (FIG. 4). For comparison, binding activity towards ovalbumin, which served as a negative control, was negligible. The G4 clone was later found to bind the anti-FLAG antibody (not shown).

Binder | binding result [1] | binding result [2]
B1 | no binding (tested: 0.5 µM) | –
B2 | – | no binding
